The text below walks through data of patent US20220298478A1.

The target in this assay is full length mesothelin (NM_005823) on target cells (human) (UniProt Q13421). The assay can be described thus: cell-based or functional assay.
full length mesothelin (NM_005823) on target cells (human), sequence (Q13421 other isoform, or with tags, fused parts or gaps limits assumed): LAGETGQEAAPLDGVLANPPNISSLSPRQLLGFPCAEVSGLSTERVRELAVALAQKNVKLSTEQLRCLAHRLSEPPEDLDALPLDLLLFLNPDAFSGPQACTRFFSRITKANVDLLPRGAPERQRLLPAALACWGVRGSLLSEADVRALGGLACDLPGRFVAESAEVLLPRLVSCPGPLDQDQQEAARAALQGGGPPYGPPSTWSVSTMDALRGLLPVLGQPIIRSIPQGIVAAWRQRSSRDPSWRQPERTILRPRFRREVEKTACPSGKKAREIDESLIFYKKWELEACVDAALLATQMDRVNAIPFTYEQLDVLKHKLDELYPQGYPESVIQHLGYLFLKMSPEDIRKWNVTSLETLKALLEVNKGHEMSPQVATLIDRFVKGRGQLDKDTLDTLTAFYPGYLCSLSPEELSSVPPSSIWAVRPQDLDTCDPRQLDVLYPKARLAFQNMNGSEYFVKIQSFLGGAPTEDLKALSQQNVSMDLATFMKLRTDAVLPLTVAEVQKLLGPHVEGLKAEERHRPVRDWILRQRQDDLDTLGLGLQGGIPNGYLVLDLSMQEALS

B1: SD1 CD3ε-TFP (protein, part only; not given: linker and CD3 epsilon subunit, part only)
chain, part: EVQLVESGGGLVQPGGSLRLSCAASGGDWSANFMYWYRQAPGKQRELVARISGRGVVDYVESVKGRFTISRDNSKNTLYLQMNSLRAEDTAVYYCAVASYWGQGTLVTVSS
B1 returned a tumor cell lysis (luciferase assay), E:T 1-to-1, patients 1, 2, 4 and 5 of 50%; a tumor cell lysis (luciferase assay), E:T 1-to-5, patients 4 and 5 of 50%; a tumor cell lysis (luciferase assay), E:T 5-to-1, patient 3 of 35%; a tumor cell lysis (luciferase assay), E:T 5-to-1, patients 1, 2, 4 and 5 of 75 to 97%.
